Data reported in paper PMC5449630 (Nucleic Acids Research, 2017).

T1: DNA ligase IV tandem BRCT domains (residues 654-911) (UniProt P49917 654-911)
T1 sequence (looked up): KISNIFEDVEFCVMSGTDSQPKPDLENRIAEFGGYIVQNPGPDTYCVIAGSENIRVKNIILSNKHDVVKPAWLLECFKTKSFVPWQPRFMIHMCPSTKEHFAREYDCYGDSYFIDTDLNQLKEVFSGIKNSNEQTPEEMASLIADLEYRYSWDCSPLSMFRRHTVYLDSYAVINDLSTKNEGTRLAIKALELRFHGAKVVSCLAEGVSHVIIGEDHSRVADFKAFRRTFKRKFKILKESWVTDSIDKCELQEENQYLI

B1: XRCC4 residues 1-238, non-phosphorylated (domain or fragment, UniProt Q13426 1-238, looked up)
chain: MERKISRIHLVSEPSITHFLQVSWEKTLESGFVITLTDGHSAWTGTVSESEISQEADDMAMEKGKYVGELRKALLSGAGPADVYTFNFSKESCYFFFEKNLKDVSFRLGSFNLEKVENPAEVIRELICYCLDTIAENQAKNEHLQKENERLLRDWNDVQGRFEKCVSAKEALETDLYKRFILVLNEKKTKIRSLHNKLLNAAQEREKDIKQEGETAICSEMTADRDPVYDESTDEESE
B2: CK2-phosphorylated XRCC4 residues 1-238 (domain or fragment, UniProt Q13426 1-238, looked up)
chain: B1 chain
modifications: phosphoserine at 232, phosphothreonine at 233 (CK2alpha in vitro)

Experiments:
[1] = molecular target: the molecule itself; test: SEC
[2] = molecular target: T1, DNA ligase IV tandem BRCT domains …; test: SEC
[3] = molecular target: the molecule itself; test: SEC-MALS

Row | Binder | binding result [1] | binding result [2] | stoichiometry N [3]
1 | B1 | binds | binds | –
2 | B2 | – | binds | 2
